The target of the experiment is MHC class I (human). Nature of the experiment: cell-based or functional assay.

The substance “monoclonal antibody to MHC class I (w6/32 without sodium azide, Cat. No. 16-9983, e-Bioscience, Inc.)” had an IFN-γ production (ELISPOT, PBMC stimulated with CMV pp65 peptide …), percent inhibited, 2 µl W6/32 of 27 to 42% and an IFN-γ production (ELISPOT, PBMC stimulated with CMV pp65 peptide …), percent inhibited, 10 µl W6/32 of 58 to 71%.

(Values after US20050074822A1.)
